{
  "source": "paper PMC3248863",
  "about": "“The acid-tolerant L-arabinose isomerase from the mesophilic Shewanella sp. ANA-3 is highly active at low temperatures” (Microbial Cell Factories, 2011)",
  "proteins": {"B1": {"name": "Shewanella sp. ANA-3 L-arabinose isomerase (enzyme, UniProt A0KWX7 1-500, looked up)", "chain": "MKAFKQKQVWFITGSQDLYGPKVLEQVAKNSEQIVHGFNESSAISIEVVYKPTVKSPREIHAVCQAANSDENCVGVILWMHTFSPAKMWIAGLNELSKPFMHLHTQFNAELPWSEINMNYMNTHQSAHGCREFGFIGTRMRKERKVVVGHWQSSDVQAQIDDWCRAAAGWHESQNLRIARFGDNMRQVAVTEGDKVAAQIQFGYEVHAYSLGELNEAIADIAEGDVTAQLDRYASEYQVGNELFGDEYQLDRLRKEAKIELGLTQFLTQGGFGAFTNCFENLTGMTGLPGLATQRLMANGFGYGGEGDWKTAAMVRIMKVMGQGRAGGTSFMEDYTYNFGATDQVLGAHMLEVCPSIAAAKPRLEVHRHTIGVRCDVPRLLFTGKAGPAINVSTIDLGNRFRIILNELDTVTPPQDLPNLPVASALWEPRPNLAVAAAAWIHAGGAHHSAYSQAITTDQIVDFAEMAGAELVIIDADTKIREFKNELRQNSVYYGLARGL", "notes": "L-arabinose isomerase (EC 5.3.1.4) of Shewanella sp; ANA-3, product of the araA gene amplified from chromosomal DNA; 500 amino-acid residues, calculated mass 55.3 kDa; Six histidines at the N-terminal end from pET-15b; also called L-AI; Shewanella sp; ANA-3 L-AI; source: E. coli BL21 (DE3) (pMR38, pET-15b), purified (ammonium sulphate precipitation, IMAC, size exclusion chromatography)"}},
  "target": "the molecule itself",
  "assay": "SEC; size exclusion chromatography of the purified recombinant enzyme against protein markers of 669, 440, 232, 140 and 66 kDa; single peak of 230 kDa, compared with the 55 kDa band in reducing SDS-PAGE",
  "data": [
    {"protein": "B1", "values": [
      {"measurement": "stoichiometry N", "value": 4}
    ]}
  ]
}
